# Molecular target: murine CCR6 expressed on HEK293 cells (HEK293/CCR6) (murine) (UniProt O54689)
# Assay: cell-based or functional assay
row,Substance,"chemotaxis of murine bone marrow derived immature DC, peak activity"
1,"mDF2βsFv38, murine β-defensin 2 fusion with sFv38 (from UniProt P82020 21-71)",10 ng/mL
2,"mDF3βsFv38, murine β-defensin 3 fusion with sFv38 (from UniProt Q9WTL0 23-63)",100 ng/mL

# Source: patent US20050095257A1
